Substrate in the series: CC(=O)C(=O)O
Kind of series: purified protein. To be noted: 0.4 mM NADH, pyruvate 0.05-40 mM. It is filed as biochemical, Sporolactobacillus inulinus.

5 proteins from article PMC6528580, “Relative catalytic efficiencies and transcript levels of three D‐ and two L‐lactate dehydrogenases for optically pure D‐lactate production in Sporolactobacillus inulinus” (MicrobiologyOpen, 2018) can be followed below.

B1: D-LDH1 (Sporolactobacillus inulinus CASD) (protein)
chain: MKLFMYGVQAHEKEIIRAWADAHAIDIETTADFLSEKTVDRAKDYDGICIQQPVPLGAAKLYATLKSYGIKQIATRTAGYDMIDLQEAEKNELIVTNVPAYSPYAVAELAVTQAMQLVRHVSQFQQRIAANDFRWDGLMSREIRSMTVGIVGTGRIGATAAQLFKGLGAKIIGFDQYPNDRLKDLIEYRSSLEDVLKEADIVSLHTPLFDSTRHMINARTLKLMKKSAYLINIARGALIDTEALIDALESGEIAGAALDTFENETVINKNLSGQSLNDPLLEKLIAMDQVLLTPHVGFFTETAIRNIVEGALNSVLEVLQTGTSKSRVKPAVTQ
notes: N-terminal His-tag (pET-28a) removed by enterokinase; E. coli BL21(DE3)
Broadly, the Km is the concentration of substrate that gives half-maximal velocity. The term Vmax denotes the rate approached at saturating substrate. Broadly, the kcat is the number of substrate molecules converted per active site and unit of time at saturation. Broadly, the kcat/Km is the second-order rate constant that governs catalysis at low substrate concentration. With B1, for the setting “pH 6.0, 35 °C”, the Km was 0.47 ± 0.04 mM, the Vmax stood at 62.7 µmol/min/mg, the kcat is 75.8 ± 0.3 s⁻¹ and the catalytic efficiency (kcat/Km) is 161000 ± 6000 M⁻¹ s⁻¹.

B2: D-LDH3 (Sporolactobacillus inulinus CASD) (protein)
chain: MKIIMFSVRDDEEAAIREWEKKTGVQVDINRLELDAETAQLTKGYDGIVIQQRSHISNPAVYETLQKNGLRQLTSRTAGYDMIDLEQASERGLVVTNVPAYSPNSVAELALTQTMRLIRNLPLFDARGAEQDFRWAGLMAREIRSLTVGIIGAGRIGGTVARLFKALGATVIANDIVERVELKDIVTYVSKEELLQAADVVTLHVPLMDSTTQLIDADALALMKNDAVLINASRGPVVDTDALIAALQNKQIAGAALDTLNGEEHFFNQDLCGKELPSEQLKVLRTLPNVLITPHIGFYTNKAVQNMVEISLNDVLAILKTGTSEHQLNKVAVEN
notes: N-terminal His-tag (pET-28a) removed by enterokinase; E. coli BL21(DE3); homodimer hypothesised from identical DLDH744
Consider B2, for which, where the note is “pH 5.5, 30 °C”, the Km worked out at 3.1 ± 0.08 mM, the maximal velocity (Vmax) was 9.2 µmol/min/mg, the kcat turned out to be 10.7 ± 0.2 s⁻¹ and the kcat/Km stood at 3500 ± 200 M⁻¹ s⁻¹.

B3: L-LDH1 (Sporolactobacillus inulinus CASD) (protein)
chain: MSETVRRVGVVGIGNVGKAAASAVLHENIADELYISDIDSERAKGEAWDFADSIELTPSRTRVLEVPLEGLAVCDVILVAVTERSQIPTQSRLELLKGTAAITYDIVPKLRKAGFKGTYVIATNPCDIITYLFYKLSGLPKNHVIGTGTALDSMRLRRQLSQVIGDVDPRSINAFMIGEHGDSQIAAWSQATVGGQPLDQFEEDNVDEFGPIDRDQVEDAARHFGWEIHTRKGNTQFGIGNALAFFAKSILNDARVVTAASVIQNGEYGQNDLAIGVPIILGRNGVERIIKFRLSEKEQEGFNGSAELIKGYIKQTLEEHEETTAN
notes: as for B1
As to B3, under “pH 7.0, 45 °C”, the Km is listed as 4.1 ± 0.12 mM, the Vmax was found to be 5.2 µmol/min/mg, the turnover number (kcat) was determined as 5.9 ± 0.1 s⁻¹ and the kcat/Km turned out to be 1400 ± 100 M⁻¹ s⁻¹.

B4: L-LDH2 (Sporolactobacillus inulinus CASD) (protein)
chain: MRKYAIIGLGHVGAAVAFQLVSRGIADELILIDTNEGLARAEQLDLQDMQGRIDTRTIIKINDYSELADTDILFITAGNILAYKEKQAQGNRWAEFEYTKDIVQDIAPKVKASGFHGVAIDTMNPCDAITQYFQENTGLSRQQVFATGTFLDTARMQKVVSDQFDCDPKNVSGYVYGEHGESQFTAWSTVRVNGLDITELAKERNLNLDDLEEAARRGGWEVYKGKGYTSWAISTCAVKLSQAVLSDAHAACICSCYSEKYGTYVGQPAIIGKNGIEEVLTLPLTTEEEAKFKHSADTIKEKFQTFEKQTN
notes: as for B1
In the case of B4, under “pH 7.0, 40 °C”, the Km was 6.8 ± 0.19 mM, the Vmax is 1.9 µmol/min/mg, the kcat was determined as 2.3 ± 0.1 s⁻¹ and the catalytic efficiency (kcat/Km) was 300 ± 100 M⁻¹ s⁻¹.

B5: D-LDH2 (Sporolactobacillus inulinus CASD) (protein)
chain: MAFKIIAYGVEPYEEHLYSELNKYGFELTLVNDLLTADNGDLAKGHDGVLLFVNCLADRANLEKFNDYGINYVFTRTAGFNHIDLQAAADLGIKVARVPAYSPNAIAELAVYLGTSLLRHTVYTTARTSKLNFTVTETNFSHEVHKIKVGIVGTGHIGCVEAELYKGLGAKLLGYDIFQSDFAKKLVEFKELDELLAESDIVSLHLPYFPGKNENFVGEDFIGKMKDGAILINTARGELVDEAAVAKAIKSGKLEGFGADVLTDEARFFGKDFSDGTEFPDATIKELIELYPKVLITPHVAAMTDVAVSNMISTSYDNFNAAIKGESLGRAEVELPEPAKK
notes: as for B1
Turning to B5, for the setting “pH 7.5, 30 °C”, the Michaelis-Menten constant (Km) was determined as 1.4 ± 0.09 mM, the maximal velocity (Vmax) is 38.1 µmol/min/mg, the kcat turned out to be 44.7 ± 0.3 s⁻¹ and the kcat/Km worked out at 32000 ± 2000 M⁻¹ s⁻¹.
